In patent US20100298213A1, “Pharmaceutically Active Insulin Receptor-Modulating Molecules” (Novo Nordisk A/S, priority 2004, published 2010):
Ends that are not written are not given here.

Target: insulin receptor on mouse adipocytes (mouse, UniProt P15208 28-1372)
Assay: cell-based or functional assay

Sequence of insulin receptor on mouse adipocytes (P15208 28-1372): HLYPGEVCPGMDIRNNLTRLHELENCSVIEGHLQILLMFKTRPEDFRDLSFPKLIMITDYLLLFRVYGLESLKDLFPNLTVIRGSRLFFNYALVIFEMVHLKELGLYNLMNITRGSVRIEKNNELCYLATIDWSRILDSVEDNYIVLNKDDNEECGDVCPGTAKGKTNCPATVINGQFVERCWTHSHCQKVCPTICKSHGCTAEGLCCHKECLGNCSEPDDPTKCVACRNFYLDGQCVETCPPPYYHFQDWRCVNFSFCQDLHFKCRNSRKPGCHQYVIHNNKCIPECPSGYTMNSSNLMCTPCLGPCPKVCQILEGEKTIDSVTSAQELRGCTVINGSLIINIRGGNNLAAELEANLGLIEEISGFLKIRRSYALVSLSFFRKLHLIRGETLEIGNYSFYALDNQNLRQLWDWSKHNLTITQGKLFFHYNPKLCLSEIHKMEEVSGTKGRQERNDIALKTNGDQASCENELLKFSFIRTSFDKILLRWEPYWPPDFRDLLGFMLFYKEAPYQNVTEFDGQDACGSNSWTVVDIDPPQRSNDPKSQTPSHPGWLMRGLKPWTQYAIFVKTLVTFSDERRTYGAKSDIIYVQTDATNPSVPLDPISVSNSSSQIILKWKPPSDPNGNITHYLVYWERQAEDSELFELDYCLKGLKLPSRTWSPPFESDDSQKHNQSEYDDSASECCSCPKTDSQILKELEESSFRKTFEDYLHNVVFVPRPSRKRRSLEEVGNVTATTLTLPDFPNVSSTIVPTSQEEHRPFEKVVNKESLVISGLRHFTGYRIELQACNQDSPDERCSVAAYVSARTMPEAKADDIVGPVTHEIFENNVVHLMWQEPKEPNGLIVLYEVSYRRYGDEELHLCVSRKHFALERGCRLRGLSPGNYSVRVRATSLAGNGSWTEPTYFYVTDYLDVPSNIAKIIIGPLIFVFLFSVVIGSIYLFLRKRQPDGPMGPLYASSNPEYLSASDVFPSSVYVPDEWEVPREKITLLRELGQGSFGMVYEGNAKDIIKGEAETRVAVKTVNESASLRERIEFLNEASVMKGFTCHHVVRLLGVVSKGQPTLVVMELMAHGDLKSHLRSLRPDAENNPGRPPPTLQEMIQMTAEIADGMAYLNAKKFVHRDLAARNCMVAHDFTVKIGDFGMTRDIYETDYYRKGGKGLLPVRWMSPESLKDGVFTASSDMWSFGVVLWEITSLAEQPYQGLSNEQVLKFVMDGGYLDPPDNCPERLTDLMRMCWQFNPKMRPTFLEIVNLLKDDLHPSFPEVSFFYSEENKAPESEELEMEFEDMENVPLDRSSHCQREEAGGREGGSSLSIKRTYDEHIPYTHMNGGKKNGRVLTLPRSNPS

Binder	EC50 (FFC) [nM]	EC50 (FFC) rel. to HI [%]
GSLDESFYDWFERQLGKKY [670]	850	–
Ac-SLEEEWAQIECEVYGRGCPSESFYHWFERQL (cysteine pairing not given here) [S665]	1.9	3.4
SLEEEWAQIEAEVWGRGAPPSESFYDWFERQLGY [649]	14	0.4
Ac-SLEEEWAQIQCEVWGRGCPSGGSTFEDYLHNVVFVPRPS (cysteine pairing not given here) [658]	~1000	–
Ac-SLEEEWAQIQCEVWGRGCPSEAFYDWFHEQLDD (cysteine pairing not given here) [662]	2	3.3
Ac-SLEEEWAQIQCEVWGRGCPSESFYDWFEAQLHA (cysteine pairing not given here) [634]	0.083	66
Ac-HGLEEEWAQIQCEVWGRGCPSESFYDWFEAQLHA (cysteine pairing not given here) [639]	0.78	5
Ac-SLEEEWAQIECEVYGRGCPSEGFYNAIELLS (cysteine pairing not given here) [637]	39	0.1
Ac-SLEHEWAQIHCEVYGRGCPSESFYHWFERQL (cysteine pairing not given here) [674]	230	–
Ac-SLEEEWAQIQCEVWGRGCPSESFYGWFQAQL (cysteine pairing not given here) [668]	2.3	2.8
Ac-SLEEEWAQIQAEVWGRGAPSESFYDWFERQL [672]	25	0.3
SLEEHWAQVECEVYGRGCPSESFYDWFERQL [680]	16	0.4
HQLEEEWQAIQCELWGRGCPSEDFYDWFEAQLHA [616]	1.5	4
HELEEEWKRIECELWGRGCPSEDFYDWFEAQLHA [618]	4.6	1
Ac-SLEEEWAQIQCEVWGRGCQRPEPFYDWFERQL (cysteine pairing not given here) [S642]	0.14	39
Ac-SLEEEWAQIQCEVWGRGCQRPEPFYDWFAEQLDD (cysteine pairing not given here) [655]	0.63	8.7
HLEEEWSEIQCELWGRGCPSEDFYDWFEAQLHA [617]	3.9	1
Ac-SLEEEWAQIQCELWGRGCPSESFYDWFERQL (cysteine pairing not given here) [643]	0.097	57
